Measurements from publication PMC8892012.

Molecular target: arrestin-3 fused to Renilla luciferase (UniProt P32121)
Assay: BRET arrestin-3 interaction assay
Settings: maximal zaprinast-stimulated BRET; receptor-eYFP co-transfected with arrestin-3-Renilla luciferase; n = 3, ± SD; parent: est. 100; read off a plot

UniProt P32121, sequence (P32121 whole entry, the tested form may be a part): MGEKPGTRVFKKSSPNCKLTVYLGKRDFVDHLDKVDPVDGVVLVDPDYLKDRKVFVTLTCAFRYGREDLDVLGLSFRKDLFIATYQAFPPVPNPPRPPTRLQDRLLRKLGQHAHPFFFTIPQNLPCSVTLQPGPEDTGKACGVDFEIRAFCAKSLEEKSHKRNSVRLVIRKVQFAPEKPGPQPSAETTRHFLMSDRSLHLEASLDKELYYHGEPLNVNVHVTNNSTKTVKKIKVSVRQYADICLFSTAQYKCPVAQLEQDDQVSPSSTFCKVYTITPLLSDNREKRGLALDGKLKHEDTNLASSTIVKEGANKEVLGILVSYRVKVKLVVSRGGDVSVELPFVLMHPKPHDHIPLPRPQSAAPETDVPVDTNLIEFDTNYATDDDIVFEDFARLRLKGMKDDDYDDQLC

| Substance | percent of parent (% WT response) |
| --- | --- |
| rGPR35-eYFP S286A | 125 |
| rGPR35-eYFP S286A; T290A; S291A; S292A; T293A; S297A; T300A; S302A; S304A; T306A | 7 |
| rGPR35-eYFP S297A; T300A | 10 |
| rGPR35-eYFP S302A; S304A; T306A | 33 |
| rGPR35-eYFP T290A; S291A; S292A; T293A | 83 |
